Measurements reported in article PMC4275180.

Key:
Stat1 [1] = molecular target: Stat1 (UniProt P42224); assay: FLAG co-IP, western blot; details: reference: wild type FLAG-KDM3A; sites S264
Stat1 [2] = molecular target: Stat1 (UniProt P42224); assay: GST pull-down after in vitro kinase reaction; details: reference: His-KDM3A(1-394) not phosphorylated by MSK1; sites S264

Substance	binding against the reference (Stat1 [1])	binding against the reference (Stat1 [2])
KDM3A (from UniProt Q9Y4C1) S264A	lost	–
KDM3A 1-394 (from UniProt Q9Y4C1) His-KDM3A(1-394) phosphorylated by recombinant MSK1	–	gained
